According to the RNAGym collection of RNA variant scans (doi:10.1073/pnas.2313332121):
Fewer inactive variants are shown than the library holds.

B1: TPR 5TU (parent)
chain: GGAUCUUCUCGAUCUAACAAAAAAGACAAAUCUGCCACAAAGCUUGAGAGCAUCUUCGGAUGCAGAGGCGGCAGCCUUCGGUGGCGCGAUAGCGCCAACGUUCUCAACUAUGACACGCAAAACGCGUGCUCCGUUGAAUGGAGUUUAUCAUG

Variants of: B1
Test: polymerase ribozyme fitness, log enrichment relative to wild type (log ratio); higher = more active; in vitro selection for triplet polymerase activity
How it was run: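 Each subunit of a heterodimeric triplet polymerase ribozyme was represented by a PCR-built, transcribed mutant library that underwent triplicate single-round in vitro selection with frozen incubation at −7 °C. Extended constructs were recovered by gel excision, streptavidin-bead capture and RT-PCR, and Illumina sequencing of input and output libraries kept genotypes with ≥10 input reads and ≥1 read per output. Fitness is the logarithm of genotype enrichment relative to wild-type enrichment, from inverse-variance-weighted replicate averages, with a logarithm base of 2.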

Row | Variant | polymerase ribozyme fitness (log ratio)
1 | C85G A119G | -1.7
2 | C85G A119C | -2.45
3 | G86A U139G | -1.36
4 | C85U G126A A142G | -0.307
5 | G84U U104G A115C | -3.36
6 | G88U G126A | -2.98
7 | G84C G126C | -1.54
8 | G86U G92C A98G A150U | -2.26
9 | C85A C87U U101G G136U | ≤ -4.2
10 | C85A A115C | -1.64
11 | U90A C99U U111C | -4.13
12 | C85A C87U A98C | -3.62
13 | C87G A113C A138U U146C | ≤ -4.2
14 | C85G A106C G141U G143U U151A | ≤ -4.2
15 | U90C G94U | -3.46
16 | C85U C96U G126C A147G | ≤ -4.2
17 | C85U C96G U135C | -2.57
18 | G84A U139G | -0.68
19 | C85U U146A G152U | -3.06
20 | G88A A147C | -4.01
21 | A89G U139G | -0.875

Row | Variant | polymerase ribozyme fitness (log ratio)
22 | C87U C108G U145G | ≤ -4.2
23 | G86A U101G | -0.828
24 | C87U C103G C116U | -1.35
25 | C85G U101G G128U | -4.03
26 | G84C A97G | -1.95
27 | A89C G124A | -1.59
28 | G88C G126C | ≤ -4.2
29 | C85U G92A G143U | -4.16
30 | A89C G143A | -0.0918
31 | G86U C118U C125U | -4.01
32 | G86U G100A C131U | ≤ -4.2
33 | C85G G133C U135C | ≤ -4.2
34 | G84C G92U A150U | -2.39
35 | A89C G117U | -0.705
36 | C85A G141A | -1.85
37 | C85A G141C | -1.46
38 | C85A A119U A122U G141A | 0.358
39 | A89G G117U | -0.974
40 | C85U C95A G136U A138C | ≤ -4.2
41 | U90A A107G | ≤ -4.2
42 | C85A A142U | -1.59

Row | Variant | polymerase ribozyme fitness (log ratio)
43 | G84U U144G | -0.698
44 | U90C U148G | ≤ -4.2
45 | G88A C96A C103U | ≤ -4.2
46 | C85U G136C | -3.29
47 | C87A C125U | -4.14
48 | A89U C95A A97U U111G G124A C149A U151C | ≤ -4.2
49 | G86U C123G | -1.55
50 | G86U C123A | -1.99
51 | C85G U102C G141U | -3.43
52 | C87G A97U G117C | ≤ -4.2
53 | C85A C103A C149U | -3.27
54 | A89U A150C | -3.66
55 | C87G C93A | -3.63
56 | C85A U130A | -2.45
57 | C87G G92C C105U | 0.371
58 | C85U C93U C131A | -2.94
59 | G86A C103U | -1.01
60 | G88U U127C | -4.15
61 | U90G C116G | -3.78
62 | A89G C93A | -3.94
63 | C87G C99U | ≤ -4.2

Row | Variant | polymerase ribozyme fitness (log ratio)
64 | C85U A89C C93U C149U | -3.26
65 | C87A U146G | ≤ -4.2
66 | C87G C105A | ≤ -4.2
67 | C85G C114G G141U | -4.17
68 | C85A A137C | -4.13
69 | G86U A147G | -3.45
70 | C85G C125A | -2.37
71 | C85G C116A | -0.515
72 | G84U U135A | -2.85
73 | C85G U144A | -2.27
74 | C87U C96U | -1
75 | C87U C96A | -1.2
76 | A89U G94U | -1.2
77 | C85U C118U A142U | -1.02
78 | G86A A121U | -0.51
79 | C87A G117C G136U G141U | ≤ -4.2
80 | C87A A97G A142C | ≤ -4.2
81 | G84A G136U | -2.81
82 | G84U U127G | -3.43
83 | G84U | -1.91
